Results on one substance are retold here after patent US20250206836A1.

The target of this assay is C1q human protein (human) (UniProt P02745). The experiment in a line: ELISA, plates coated with the antibody, C1q human protein titrated (the concentration axis is that of C1q), Mean Absorbance (OD Units). For orientation: In an ELISA, binding on a coated surface is turned into a signal by an enzyme label.
C1q human protein (human), sequence (P02745 23-245 limits assumed, chain 1 of 3): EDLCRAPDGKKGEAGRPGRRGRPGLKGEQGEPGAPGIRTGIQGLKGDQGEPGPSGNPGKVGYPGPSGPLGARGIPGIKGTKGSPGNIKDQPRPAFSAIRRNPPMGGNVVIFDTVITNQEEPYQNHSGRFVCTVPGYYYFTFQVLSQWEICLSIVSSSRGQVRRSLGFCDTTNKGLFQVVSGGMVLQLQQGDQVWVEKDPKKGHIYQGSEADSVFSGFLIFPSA
C1q human protein (human), sequence (P02746 28-253 limits assumed, chain 2 of 3, further chain): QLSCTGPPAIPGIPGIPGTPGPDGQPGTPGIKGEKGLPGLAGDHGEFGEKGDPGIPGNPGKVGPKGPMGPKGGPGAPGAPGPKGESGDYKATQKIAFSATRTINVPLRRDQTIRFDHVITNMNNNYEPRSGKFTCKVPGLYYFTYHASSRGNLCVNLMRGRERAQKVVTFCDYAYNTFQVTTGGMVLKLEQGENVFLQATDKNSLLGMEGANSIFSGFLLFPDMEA
C1q human protein (human), sequence (P02747 29-245 limits assumed, chain 3 of 3, further chain): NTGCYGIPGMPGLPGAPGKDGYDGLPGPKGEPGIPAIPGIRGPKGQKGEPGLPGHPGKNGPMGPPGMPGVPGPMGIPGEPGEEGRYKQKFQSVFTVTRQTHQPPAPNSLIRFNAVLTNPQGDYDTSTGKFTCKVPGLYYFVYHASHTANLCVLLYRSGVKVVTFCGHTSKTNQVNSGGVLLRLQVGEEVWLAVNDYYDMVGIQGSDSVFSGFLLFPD

Remicade (pos. control) (antibody): the EC50 (read off the curve) (commonly the concentration needed to bring the measured effect to its halfway point) was determined as 20 mg/L.
